Row | Substance | ratio to parent (CB6 (class I)) | ratio to parent (BD368-2 (class II)) | ratio to parent (REGN10933 (class I))
1 | SARS-CoV-2 full-length spike, WT D614G, expressed on the cell surface (from UniProt P0DTC2) Alpha (B.1.1.7) | 2.7 fold | 1.3 fold | –
2 | SARS-CoV-2 full-length spike, WT D614G, expressed on the cell surface (from UniProt P0DTC2) Gamma (P.1) | -266 fold | – | –
3 | SARS-CoV-2 full-length spike, WT D614G, expressed on the cell surface (from UniProt P0DTC2) Beta (B.1.351) | -76.3 fold | -569 fold | -3.2 fold

From article PMC8710476
